These results are taken from article PMC7378552, “Impact of the nisin modification machinery on the transport kinetics of NisT” (Scientific Reports, 2020).

The chains are these.
T1: NisT (10HNisT) (Lactococcus lactis, UniProt Q03203)
T1 construct: full length, N-terminal deca-His tag with linker (tag kept), homologous expression in L. lactis NZ9000, solubilised in Fos-choline-16, assayed in CYMAL5
T1 sequence (Q03203 1-600): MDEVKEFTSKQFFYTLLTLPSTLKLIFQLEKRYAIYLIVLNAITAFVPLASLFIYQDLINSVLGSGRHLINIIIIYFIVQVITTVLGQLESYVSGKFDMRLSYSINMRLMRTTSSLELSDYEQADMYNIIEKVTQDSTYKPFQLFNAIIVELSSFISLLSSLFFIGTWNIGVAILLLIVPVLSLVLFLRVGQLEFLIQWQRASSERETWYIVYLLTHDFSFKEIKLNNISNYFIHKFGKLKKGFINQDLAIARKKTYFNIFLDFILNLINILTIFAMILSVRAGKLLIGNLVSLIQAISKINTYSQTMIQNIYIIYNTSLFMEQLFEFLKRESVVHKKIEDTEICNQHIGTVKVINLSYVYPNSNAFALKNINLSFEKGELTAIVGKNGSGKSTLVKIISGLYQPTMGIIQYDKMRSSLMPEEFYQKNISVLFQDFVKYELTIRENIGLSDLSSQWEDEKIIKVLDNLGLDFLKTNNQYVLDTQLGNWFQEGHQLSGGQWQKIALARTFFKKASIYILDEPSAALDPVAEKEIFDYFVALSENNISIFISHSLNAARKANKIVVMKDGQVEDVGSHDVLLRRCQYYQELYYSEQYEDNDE

T2: NisB (dehydratase of nisin precursor peptide) (Lactococcus lactis, UniProt P20103 1-993)
T2 construct: NisB, nisin dehydratase of Lactococcus lactis; NisB alone was not held on Ni-NTA beads, so it probably bore no His tag in the assay; source: purified
T2 sequence (looked up): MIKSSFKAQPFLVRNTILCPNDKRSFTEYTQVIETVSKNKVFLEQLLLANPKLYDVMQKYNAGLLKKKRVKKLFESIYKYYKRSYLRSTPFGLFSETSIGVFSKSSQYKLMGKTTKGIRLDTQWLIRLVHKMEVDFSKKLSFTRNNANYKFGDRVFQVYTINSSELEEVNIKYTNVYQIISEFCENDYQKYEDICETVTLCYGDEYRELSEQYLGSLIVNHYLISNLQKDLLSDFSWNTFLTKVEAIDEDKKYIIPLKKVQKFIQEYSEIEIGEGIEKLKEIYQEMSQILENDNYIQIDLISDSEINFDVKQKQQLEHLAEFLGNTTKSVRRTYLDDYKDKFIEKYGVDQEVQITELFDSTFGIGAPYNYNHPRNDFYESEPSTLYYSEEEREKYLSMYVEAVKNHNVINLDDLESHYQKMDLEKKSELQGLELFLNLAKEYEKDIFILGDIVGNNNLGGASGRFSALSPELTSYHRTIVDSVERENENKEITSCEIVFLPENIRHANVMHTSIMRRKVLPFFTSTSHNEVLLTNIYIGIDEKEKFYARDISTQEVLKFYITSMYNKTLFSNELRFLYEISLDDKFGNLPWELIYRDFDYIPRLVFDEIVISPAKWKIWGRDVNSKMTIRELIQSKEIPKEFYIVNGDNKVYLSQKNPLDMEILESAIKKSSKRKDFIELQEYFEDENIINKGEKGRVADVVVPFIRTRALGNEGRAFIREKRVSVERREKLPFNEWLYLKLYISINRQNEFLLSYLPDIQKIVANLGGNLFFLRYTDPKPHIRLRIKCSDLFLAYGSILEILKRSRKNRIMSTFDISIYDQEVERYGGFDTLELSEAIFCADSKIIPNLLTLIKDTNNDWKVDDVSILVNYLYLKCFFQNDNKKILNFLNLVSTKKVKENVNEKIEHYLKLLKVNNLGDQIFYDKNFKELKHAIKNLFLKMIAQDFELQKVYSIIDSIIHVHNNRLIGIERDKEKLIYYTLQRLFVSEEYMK

B1: 10HNisT (deca-histidine tagged NisT, ABC transporter of the nisin precursor peptide) (natural protein, Lactococcus lactis, UniProt Q03203 1-600, looked up)
chain: T1 sequence (Q03203 1-600)
notes: NisT, lanthipeptide ABC transporter of Lactococcus lactis; nisT gene amplified from genomic DNA of L. lactis NZ97000 and inserted into pNZ-SV10H; TMD is residues 1-347, the NBD begins at H348; Used in detergent (CYMAL5) in the pull-down; also called WT; source: L. lactis NZ9000 (pNZ-SV10HnisT), membranes solubilised with FC-16, purified (IMAC, SEC); not shown: His10 (deca-histidine), N-terminal, …
B2: NisC (cyclase of nisin precursor peptide) (enzyme, Lactococcus lactis, UniProt Q03202 1-418, looked up)
chain: MRIMMNKKNIKRNVEKIIAQWDERTRKNKENFDFGELTLSTGLPGIILMLAELKNKDNSKIYQKKIDNYIEYIVSKLSTYGLLTGSLYSGAAGIALSILHLREDDEKYKNLLDSLNRYIEYFVREKIEGFNLENITPPDYDVIEGLSGILSYLLLINDEQYDDLKILIINFLSNLTKENNGLISLYIKSENQMSQSESEMYPLGCLNMGLAHGLAGVGCILAYAHIKGYSNEASLSALQKIIFIYEKFELERKKQFLWKDGLVADELKKEKVIREASFIRDAWCYGGPGISLLYLYGGLALDNDYFVDKAEKILESAMQRKLGIDSYMICHGYSGLIEICSLFKRLLNTKKFDSYMEEFNVNSEQILEEYGDESGTGFLEGISGCILVLSKFEYSINFTYWRQALLLFDDFLKGGKRK
notes: NisC, nisin cyclase of Lactococcus lactis; NisC alone was not held on Ni-NTA beads, so it probably bore no His tag in the assay; source: purified

Experiment [1] concerns the target T1, NisT (10HNisT). Nature of the experiment: malachite green phosphate release assay, Michaelis-Menten fit. Particulars: basal ATPase, no peptide substrate; 1 µM NisT, ATP 0-5 mM, 10 mM MgCl2, 0.4% CYMAL5, 30 °C, 30 min. It counts as biochemical.
Experiment [2] concerns the target T2, NisB (dehydratase of nisin precursor …). Nature of the experiment: pull-down; 10HNisT (~15 ug) immobilised on Ni-NTA magnetic beads; 10 uM NisB, NisC or NisBC added without substrate; activity assay buffer with 0.4% CYMAL5, 400 mM glutamate, 5 mM MgATP; 1 h at 30 C; six washes, elution with 50 mM EDTA; Western blot. The conditions noted are these: both partners purified.

Experiment [3] addresses B1. The description is as above. Particulars: both partners purified.

Consider `Nc1ncnc2c1ncn2[C@@H]1O[C@H](COP(=O)(O)OP(=O)(O)OP(=O)(O)O)[C@@H](O)[C@H]1O` [ATP], for which the Michaelis-Menten constant (Km) in experiment [1] was 370 ± 40 µM.

With B1, the binding result in experiment [2] was “binds”.

As to B2, the binding result in experiment [3] was “binds”.
